In paper PMC7110780, “Multimodular fused acetyl–feruloyl esterases from soil and gut Bacteroidetes improve xylanase depolymerization of recalcitrant biomass” (Biotechnology for Biofuels, 2020):

Legend:
[1] = system: CC(=O)Oc1ccc([N+](=O)[O-])cc1; assay: purified protein; type: biochemical, Bacteroides ovatus; details: pH 8.0, 37 °C, 100 mM buffer
[2] = system: CC(=O)Oc1ccc2c(C)cc(=O)oc2c1; assay: purified protein; type: biochemical, Bacteroides ovatus; details: pH 8.0, 37 °C, 100 mM buffer

Substance	Km [1]	kcat [1]	kcat/Km [1]	Km [2]	kcat [2]	kcat/Km [2]
BoCE1 (Bacteroides ovatus)	1400 ± 100 µM	0.7 ± 0.02 s⁻¹	500 ± 40 M⁻¹ s⁻¹	40 ± 10 µM	0.28 ± 0.01 s⁻¹	7100 ± 1600 M⁻¹ s⁻¹
BoCE6 (Bacteroides ovatus)	1800 ± 200 µM	36 ± 2.2 s⁻¹	20100 ± 2700 M⁻¹ s⁻¹	27 ± 6 µM	1.2 ± 0.1 s⁻¹	42800 ± 10000 M⁻¹ s⁻¹
